Publication doi:10.1101/2022.01.16.476540 (bioRxiv, 2022)
Residue numbers refer to the chain shown, from its start. Names and notes keep the numbering of the source.

B1: Cy3-labeled Sec9 (A442C) (domain or fragment)
chain: ARQQQEEDEAVDEIKQEIKFTKQSSVCSTRNTLKMAQDAERAGMNTLGMLGHQSEQLNNVEGNLDLMKVQNKVADEKVAELKKLNRSILAVHVSNPFNSKRRRREREEQLKNRKIEEKLMREQTSQQLSQSTQRIEGAMNANNNISEVRERYQRKNVLEKAKRYQFENDEEDDEMELEIDRNLDQIQQVSNRLKKMALTTGKELDSQQKRLNNIEESTDDLDINLHMNTNRLAGIR
B2: Sec9 (a.a. 416-651) (domain or fragment)
chain: B1 chain with C27A
B3: Habc domain-truncated Sso1 (a.a. 185-290) (domain or fragment)
chain: EAKTALAEVQARHQELLKLEKSMAELTQLFNDMEELVIEQQENVDVIDKNVEDAQLDVEQGVGHTDKAVKSARKARKNKIRCWLIVFAIIVVVVVVVVVPAVVKTR
B4: Snc2 WT (1-115) (natural protein)
chain: MSSSVPYDPYVPPEESNSGANPNSQNKTAALRQEIDDTVGIMRDNINKVAERGERLTSIEDKADNLAISAQGFKRGANRVRKQMWWKDLKMRMCLFLVVIILLVVIIVPIVVHFS

Assays:
[1] = biological target: T1, Full length Sso1 WT (a.a. 1-290) (yeast (S. cerevisiae), UniProt P32867 1-290); test: single-molecule pull-down
T1 sequence: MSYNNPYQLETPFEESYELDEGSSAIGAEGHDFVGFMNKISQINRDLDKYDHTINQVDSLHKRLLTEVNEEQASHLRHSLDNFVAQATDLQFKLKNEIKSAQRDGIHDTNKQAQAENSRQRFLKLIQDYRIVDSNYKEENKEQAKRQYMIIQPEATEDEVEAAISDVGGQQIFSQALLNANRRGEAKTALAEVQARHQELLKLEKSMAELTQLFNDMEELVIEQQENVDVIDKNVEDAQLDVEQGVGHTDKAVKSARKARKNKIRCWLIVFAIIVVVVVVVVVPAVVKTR

[2] = biological target: T1, Full length Sso1 WT (a.a. 1-290); test: single-vesicle docking
Sec9 (a.a. 416-651) = biological target: B2; test: single-vesicle docking
[3] = biological target: T2, binary Q-SNARE complex (full-length Sso1: Sec9) on vesicle membranes (yeast (S. cerevisiae), UniProt P32867;P40357); test: single-vesicle docking
T2 sequence 1: T1 sequence
T2 sequence 2: B1 chain with C27A

[4] = biological target: T3, binary Q-SNARE complex (Habc-truncated Sso1: Sec9) on vesicle membranes (yeast (S. cerevisiae), UniProt P32867;P40357); test: single-vesicle docking
T3 sequence 1: B3 chain
T3 sequence 2: B1 chain with C27A

B1
binding result [1]: binds

B2
binding result [2]: binds

B3
binding result (Sec9 (a.a. 416-651)): binds

B4
binding result [3]: binds | binding result [4]: binds
